# Measured values taken from patent US20220177457A1, “SMALL MOLECULES THAT BIND CYCLIN-DEPENDENT KINASE INHIBITOR 1B (P27KIP1)” (St. Jude Children's Hospital, Inc., priority 2019, published 2022).
# Experiments:
# p27-KID = p27-KID (Homo sapiens, UniProt P46527); experiment: 2D 1H-15N HSQC NMR screening and titration of compounds into 15N-p27-KID; conditions: read-out: Kd (from CSP); single-site binding model fitted to chemical shift perturbation; 298 K, pH 6.5
# Experimental: Two-dimensional (2D)^1H-^15N HSQC NMR experiments were performed using a SampleJet sample changer. […] Chemical shift perturbation values were quantified using the equation Δδ=√{square root over (ΔδH^2+(0.2ΔδN)^2)}. The statistical significance was based on a threshold defined as the average CSP value plus two times the standard deviation of the mean (Δδave+2σ).
# Cdk2/cyclin A [1] = target: T1, Cdk2/cyclin A (Homo sapiens, UniProt P24941); experiment: Isothermal titration calorimetry of p27 variants into Cdk2/cyclin A; conditions: ITC at 25° C., binding to Cdk2/cyclin A
# T1 construct: Full length human Cdk2; made in house
# Experimental: (§1) ITC experiments were performed using a MicroCal ITC200 calorimeter with p27 variants in the syringe and Cdk2/cyclin A and Cdk2, respectively, in the cell. Prior to each set of experiments, protein samples were extensively dialyzed together against ITC buffer containing 20 mM HEPES, pH 7.5, 300 mM NaCl, 5 mM TCEP. A standard titration consisted of 19 injections of 2-μl of p27 variant (100 μM) into a solution of Cdk2/cyclin A (10 μM) or Cdk2 (10 μM), respectively. The time interval between injections was 180 s. Experiments were performed at 25° C. Thermodynamic parameters were obtained by fitting the raw data using Origin software (OriginLab) according to the manufacturers instructions using a 1:1 binding model to obtain values of the enthalpy of binding (ΔH), Gibbs free energy of binding (ΔG), entropy of binding (ΔS), and stoichiometry factor (N). Experiments were performed in triplicate and mean and standard deviations of the mean values of these parameters are reported.
# Cdk2 = target: T2, Cdk2 (Homo sapiens, UniProt P24941); experiment: Isothermal titration calorimetry of p27 variants into Cdk2; conditions: ITC at 25° C., binding to Cdk2
# T2 construct: Full length human Cdk2; made in house
# Experimental: as §1
# Cdk2/cyclin A [2] = target: T1, Cdk2/cyclin A; experiment: Cdk2/cyclin A kinase activity assay (32P incorporation into Histone H1); type: biochemical; conditions: Histone H1 as substrate; read-out: Half maximal Cdk2/cyclin A inhibitory concentration (IC50)
# Experimental: Cdk2/Cyclin A ([…]) was mixed with Histone H1 (50 μM; EMD Millipore) and varied amounts of p27 constructs and incubated for 3 hours at 4° C. […] IC50 values were determined by curve fitting using GraphPad Prizm 7 software. Experiments were performed in triplicate and mean IC50 and standard deviations of the mean values are reported.
# Chain of p27-KID (P46527 22-105): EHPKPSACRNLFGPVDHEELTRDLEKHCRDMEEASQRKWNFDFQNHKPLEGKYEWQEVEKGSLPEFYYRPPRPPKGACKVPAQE
Kd (p27-KID),Kd (Cdk2/cyclin A [1]),ΔG (Cdk2/cyclin A [1]),ΔH (Cdk2/cyclin A [1]),−TΔS (Cdk2/cyclin A [1]),Kd (Cdk2),ΔG (Cdk2),ΔH (Cdk2),−TΔS (Cdk2),IC50 (Cdk2/cyclin A [2]),Molecule
4800 ± 1300 µM,–,–,–,–,–,–,–,–,–,O=c1oc2cc(OCCO)ccc2c2c1CCCC2 [SJ710]
–,0.134 ± 0.0235 µM,-9.4 ± 0.1 kcal/mol,-24.7 ± 1.8 kcal/mol,15.3 ± 1.9 kcal/mol,0.231 ± 0.0674 µM,-9.1 ± 0.2 kcal/mol,-24.5 ± 0.7 kcal/mol,15.4 ± 0.9 kcal/mol,0.067 ± 0.022 µM,"p27-D2: D2 sub-domain of p27, residues 58-105 of human p27 (RKWNFDFQNHKPLEGKYEWQEVEKGSLPEFYYRPPRPPKGACKVPAQE; UniProt P46527 58-105, looked up, fragment)"
